# Assay results reported in IntAct's records for PubMed 15020681.
# B1: "Na(+)/H(+) exchange regulatory cofactor NHE-RF1" (Homo sapiens), O14745 (parent)
# chain: MSADAAAGAPLPRLCCLEKGPNGYGFHLHGEKGKLGQYIRLVEPGSPAEKAGLLAGDRLVEVNGENVEKETHQQVVSRIRAALNAVRLLVVDPETDEQLQKLGVQVREELLRAQEAPGQAEPPAAAEVQGAGNENEPREADKSHPEQRELRPRLCTMKKGPSGYGFNLHSDKSKPGQFIRSVDPDSPAEASGLRAQDRIVEVNGVCMEGKQHGDVVSAIRAGGDETKLLVVDRETDEFFKKCRVIPSQEHLNGPLPVPFTNGEIQKENSREALAEAALESPRPALVRSASSDTSEELNSQDSPPKQDSTAPSSTSSSDPILDFNISLAMAKERAHQKRSSKRAPQMDWSKKNELFSNL
# Variants of: B1
# Conditions: with moes_human MSN
row,effect of a mutation on the interaction,Variant
1,decreasing interaction,MSADAAAGAPLPRLCCLEKGPNGYGFHLHGEKGKLGQYIRLVEPGSPAEKAGLLAGDRLVEVNGENVEKETHQQVVSRIRAALNAVRLLVVDPETDEQLQKLGVQVREELLRAQEAPGQAEPPAAAEVQGAGNENEPREADKSHPEQRELRPRLCTMKKGPSGYGFNLHSDKSKPGQFIRSVDPDSPAEASGLRAQDRIVEVNGVCMEGKQHGDVVSAIRAGGDETKLLVVDRETDEFFKKCRVIPSQEHLNGPLPVPFTNGEIQKENSREALAEAALESPRPALVRSASSDTSEELNSQDSPPKQDSTAPSSTSSSDPILDFNISLAMAKERAHQKRSSKRAPQMDWSKKNELRSNL [F355R]
